Data from PMC9596371 (Nature Chemical Biology, 2022).
Residue numbers refer to the chain shown, from its start.

B1: CV27 IgG (antibody, V domains shown)
VH: QVQLVESGGGVVQPGRSLRLSCAASGFTFSSYAMHWVRQAPGKGLEWVALISYDGSNKYYADSVKGRFTISRDNSKNTLYLQMNSLRAEDTAVYYCARSFGGSYYYGMDVWGQGTTVTVSS
VL: QSALTQPASVSGSPGQSITISCTGTSSDVGGYNYVSWYQQHPGKAPKLMIYDVSNRPSGVSNRFSGSKSGNTASLTISGLQAEDEADYYCSSYTSSSTPYVFGTGTKVTVL
B2: COV2-2147 IgG (antibody, V domains shown)
VH: B1 VH with V5A, L50V, F100T, G101S
VL: QSALTQPASVSGSPGQSITISCTGTSSDVGDYNYVSWYQQHPGKAPKLMIYDVSNRPSGVSNRFSGSKSGNTASLTISGLQAEDEAEYYCSSYTSSSTLLYVFGTGTKVTVL
B3: COVA2-18 IgG (antibody, V domains shown)
VH: EVQLVQSGAEVKKPGSSVKVSCKASGGTFSSYAISWVRQAPGQGLEWMGGIIPIFGTTNYAQKFQGRVTITTDESTSTAYMELSSLRSEDTAVYYCARVYSYDSSGYYLEYWGQGTRVTVSS
VL: EIVLTQSPATLSLSPGERATLSCRASQSVSSYLAWYQQKPGQAPRLLIYDASNRATGIPARFSGSGSGTDFTLTISSLEPEDFAVYYCQQRSNWPPSITFGQGTRLEIK
B4: COV2-2143 IgG (antibody, V domains shown)
VH: EVQLVESGGGLVQPGGSLRLSCAASGFTVSSNYMSWVRQAPGKGLEWVSVIYSAGSTYYADSVKGRFSISRDKSKNTLYLQMNSLRAEDTAVYYCAKEGGSGSLRYYYYGMDVWGQGTTVTVSS
VL: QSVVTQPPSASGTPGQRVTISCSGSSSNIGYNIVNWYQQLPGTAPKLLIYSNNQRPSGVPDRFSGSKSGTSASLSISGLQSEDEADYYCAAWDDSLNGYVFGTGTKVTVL
B5: COVA2-14 IgG (antibody, V domains shown)
VH: B3 VH with E1Q, S35I, T58A, Y100R, S101Y, L109E, E110D, R117L
VL: B3 VL with K39E, S97M, I98Y, R105K, L106V
B6: COV2-2449 IgG (antibody, V domains shown)
VH: QVQLVESGGGVVQPGRSLRLSCATSGFTFSSFALHWVRQAPGKGLEWVTVISDDGNNKYYVDSVKGRFTISRDNSKNTLFLQMNSLRVEDTAIYYCARASYNSNWSIGEYFRDWGQGTLVTVSS
VL: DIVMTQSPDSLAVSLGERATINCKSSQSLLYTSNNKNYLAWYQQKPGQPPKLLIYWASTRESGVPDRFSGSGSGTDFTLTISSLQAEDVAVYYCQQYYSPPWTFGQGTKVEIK

target: T1, SARS-CoV-1 spike protein (FL-GCN4-Avi-His, 2P, biotinylated trimer) (SARS-CoV (SARS-CoV-1), strain of …, UniProt P59594, stabilised, biotin on the Avi tag); assay: BLI; conditions: both partners purified

Binder | binding result
B1 | binds
B2 | binds
B3 | binds

target: T1, SARS-CoV-1 spike protein …; assay: ELISA; conditions: both partners purified

Binder | binding result
B4 | binds
B5 | binds
B6 | binds
